According to the RNAGym collection of RNA variant scans (doi:10.7554/elife.80360):

B1: HDV Ribozyme (parent)
chain: GGCCGGCAUGGUCCCAGCCUCCUCGCUGGCGCCGGCUGGGCAACAUUCCGAGGGGACCGUCCCCUCGGUAAUGGCGAAUGGGACCCA

Variants of: B1
Test: self-cleavage, relative activity (ratio to wild type); higher = more cleavage; co-transcriptional

Variant	self-cleavage
GGCCGGCAUGGUCCCAGCCUCCUCGCUGGCGCCGGCUGUGCAACAUUCCGAGGGGACCGUCCCCUCGGUAUUGGCGAAUGGGACCCA [G39U A71U]	0.431
GGCCGGCAUGGUCCCAGCCUCCGCGCUGGCGCCGGCUGGGCCACAUUCCGAGGGGACCGUCCCCUCGGUAAUGGCGAAUGGGACCCA [U23G A42C]	0
GGCCGGCAUGGUCCCAGCCUCCUCGCUGGCGCCGGCUGGGCAACAUUCCGAGGGGACCGUCUCCUCGGUAAUGGCGAAUGGCACCCA [C62U G82C]	0.242
GGCCGGCAUGGUCCAAGCGUCCUCGCUGGCGCCGGCUGGGCAACAUUCCGAGGGGACCGUCCCCUCGGUAAUGGCGAAUGGGACCCA [C15A C19G]	0.0519
GGCCGGCAUGGUCCCAGCCUCCUCGCUGGCGUCGGCUGGGCAACAUUACGAGGGGACCGUCCCCUCGGUAAUGGCGAAUGGGACCCA [C32U C48A]	1.04
GGCCGGCAUGGGCCCGGCCUCCUCGCUGGCGCCGGCUGGGCAACAUUCCGAGGGGACCGUCCCCUCGGUAAUGGCGAAUGGGACCCA [U12G A16G]	1.06
GGCCGGCAUGGUCCCAGCCUCCUCGCUGGCGCCGGCUAGGCAACAUUCCGAGGGGACAGUCCCCUCGGUAAUGGCGAAUGGGACCCA [G38A C58A]	0.115
GGCCGGCAUGGUCCCAGCCUCCUCGCUGGCGCCGGCUGGGCAACAUUCCAAGGGGACCGUCCCCUCGGUAAUGGCGAAUGGGACCCG [G50A A87G]	1.01
GGCCGGCAUGGUCCCAGCCUCCUCGCUGGUGCCGGCUGGGCAACAUUCCGACGGGACCGUCCCCUCGGUAAUGGCGAAUGGGACCCA [C30U G52C]	0.709
GGCCGGCAUGGUUCCAGGCUCCUCGCUGGCGCCGGCUGGGCAACAUUCCGAGGGGACCGUCCCCUCGGUAAUGGCGAAUGGGACCCA [C13U C18G]	0.0332
GGCCGGCAUGGUCCCAGCCUCCUCGCUGGCGCCGGCUGGGCAACAUUCCGAGGGGACCGUCCCCUCAGUAAUGGCGACUGGGACCCA [G67A A78C]	0.0963
GGCCGGCAUCGUCCCAGCCUCCUCGCUGGCACCGGCUGGGCAACAUUCCGAGGGGACCGUCCCCUCGGUAAUGGCGAAUGGGACCCA [G10C G31A]	0.393
GGCCGGCAUGGUCCCAGCCUCCUCGCUGGCGCCGUCUGGGCAACAUUCCGAGGGGACCGUCCCCUCGCUAAUGGCGAAUGGGACCCA [G35U G68C]	0.4
GGCCGGCAUAGUCCCAGCCUCCUCGCUGGCGCCGGCUGGGCAACAUUCCGAGGGGACCGUCCCCUCGGUAAUGGGGAAUGGGACCCA [G10A C75G]	0.086
GGCCGGCAUGGUUCCAGCCUCCUCGCUGGCGCCGGCUGGGCAACAGUCCGAGGGGACCGUCCCCUCGGUAAUGGCGAAUGGGACCCA [C13U U46G]	0.356
GGCCGGCAUGGUCCCAUCCUCCUCGCUGGCGGCGGCUGGGCAACAUUCCGAGGGGACCGUCCCCUCGGUAAUGGCGAAUGGGACCCA [G17U C32G]	0.0386
GGCCGGCAUCGUCCCAGCCUCCUCGCUGGCGCCGGCUGGGCAACAUGCCGAGGGGACCGUCCCCUCGGUAAUGGCGAAUGGGACCCA [G10C U47G]	1.35
GGCCGGCAUGGUCCUAGCCUCCUCGCUGGCGCCGGCUGGGCAACACUCCGAGGGGACCGUCCCCUCGGUAAUGGCGAAUGGGACCCA [C15U U46C]	0.9
GGCGGGCAUGGUCCCAGCCUCCUCGCUGGCGCCGGCUGGGCAACAUUCCGAGGGGACCGUCCCCUCCGUAAUGGCGAAUGGGACCCA [C4G G67C]	0.374
GGCCGGCAUGGUCCCAGCCUCCUCGCUGGCGCCGGUUGGGCAACAUUCCGAGGGGACCGUCCCUUCGGUAAUGGCGAAUGGGACCCA [C36U C64U]	0.628
GGCCGGCAUGGUCCCAGCCUGCUCGCUGGCGCCGGCUCGGCAACAUUCCGAGGGGACCGUCCCCUCGGUAAUGGCGAAUGGGACCCA [C21G G38C]	0
GGCCGGCAUGGUCCCAGCCUCCUCGCUGGCGCCGGCUGGGCAACAUUCCGAGGGGACCGUCCCCUCGGUAAUGGCGAAGGGCACCCA [U79G G82C]	0.119

Variant	self-cleavage
GGCCGGGAUGGUCCCAGCCUCCUCGCUGGCGCCGGCUGGGCAACAUUCCGAGGGGACCGUCCCCUUGGUAAUGGCGAAUGGGACCCA [C7G C66U]	0.231
GGCCGGCAUGGUCCCAGCCUCCUCGCUGGCGCCGGCUGGGCAACAUGCCGAGGGGACCGUCCCCUCGGUAAUGGCGAAUGCGACCCA [U47G G81C]	0.128
GGCCGGCAUGGUCCCAGCCUCCUCGCUGGCGCCGGCUGGGCAACACUCCGAGGGGACCGUCCCCUCGGUAAUGGCGAAUGGGACCCG [U46C A87G]	0.727
GGCCGGCAUGGUCCCAGCCUCCUCGCUGGCCCCGGCUGGGCAACAUUCCGAGGGGACCGUCCCCUCGGUAAUGGCGAAUCGGACCCA [G31C G80C]	0.0615
GGCCGGCAUGGUCCCAGCCUCCUCGCUGGCUCCGGCUGGGCAACAUUCCGAGGGGACCGUCCCCUCGGUAGUGGCGAAUGGGACCCA [G31U A71G]	0.271
GGCCGGCAUGGUCCCAGCCUCCUCGCUGGCGCCGGCUGGGUAACAUUCCGAGGGGACCGUCCACUCGGUAAUGGCGAAUGGGACCCA [C41U C63A]	0.983
GGCCGGCAUGGUCCCAGCCUCCUCGCUGGCGCCGGCUGGGCAACAUUCCGAGGGGACCGUGCCCUCGGUAAUGGCGUAUGGGACCCA [C61G A77U]	0.394
GGCCGGCAUGGUCCCAGCCUCCUCGCUGGUGCCGGCUGGGCAACAUUCCGAGGGGACCGUCCCCUCGGUAAUGGCGAAUAGGACCCA [C30U G80A]	0.227
GCCCGGCAUGGUCCCAGCCUCCUCGCUGGCGCCGGCAGGGCAACAUUCCGAGGGGACCGUCCCCUCGGUAAUGGCGAAUGGGACCCA [G2C U37A]	0.0583
GGCCGGCAUGGUCCCAACCUCCUCGCUGGCGCCGGCUGGGCAACAUUCCGAGGGGACCGUCCCCUAGGUAAUGGCGAAUGGGACCCA [G17A C66A]	0.748
GGCCGGCAUGGUCCCAGUCUCCUCGCUGGCGCCGGCUGGGCAACAUUCCGAGGGGACCGUCCCCUCGGUAAUGGCGAAUGGAACCCA [C18U G82A]	0.194
GGCCGGCAUGGUCCCAGCCUCCUCGCUGGCGCCGGCUGGGCAACAUUCCGAGGGGAGCGUCCCCUCGGUAAUGGCGAAUGGGACCCA [C57G]	1.02
GGCCGGCAUGGUCCCAGCCUCCUCGCUGCCGCCGGCUGGGCAACAUUCCGAGGGGACCGUCCCCGCGGUAAUGGCGAAUGGGACCCA [G29C U65G]	0.123
GGCCGGCAUGGUCCCAGCCUCCUCGCUGGCGCCGGCUGGGCAACAUUCUGAGGGGACCGUCCCCUCGGUAAUGGCGAAUGGGACCGA [C49U C86G]	1.16
GGCCGGCAUGGUCCCAGCCUCCUCGCUGGCGGCGGCUGGGCAACAUUCCGACGGGACCGUCCCCUCGGUAAUGGCGAAUGGGACCCA [C32G G52C]	0.208
GGCCGGCAUGGUCCCAGCCUCCUCGCUGGCGCCGGCUGGGCAACAUACCGAGGGGAUCGUCCCCUCGGUAAUGGCGAAUGGGACCCA [U47A C57U]	0.944
GGCCGGCAUGGUCCCAGCCUCCUCGCUUGCGCCGGCUGGGCAACAUUCCGAGGGGACCGUCCCCUCGGUAAUGGCGAAUGGGACCAA [G28U C86A]	0
GACCGGCAUGGUCCCAGCCUCCUCGCUGGUGCCGGCUGGGCAACAUUCCGAGGGGACCGUCCCCUCGGUAAUGGCGAAUGGGACCCA [G2A C30U]	0.0639
GGCCGGCAUGGUCCCAGCCUCCUCGCUAGCGCCGGCUGGGCAACAUUCCGAGGGGACCGUCUCCUCGGUAAUGGCGAAUGGGACCCA [G28A C62U]	0.134
GGCCGGCAUGGUCCCAGCCUCCUCGCUGGCGCCGGCUCGGGAACAUUCCGAGGGGACCGUCCCCUCGGUAAUGGCGAAUGGGACCCA [G38C C41G]	0.406
GGCCGGCAUGGUCCCGGCCUCCUCGGUGGCGCCGGCUGGGCAACAUUCCGAGGGGACCGUCCCCUCGGUAAUGGCGAAUGGGACCCA [A16G C26G]	0.831
GGCCGGCAUGGUCCCAGCCUCCUCGCUGGCGCCGGCUGGGCAACAUUCCGAGGGGAGCGACCCCUCGGUAAUGGCGAAUGGGACCCA [C57G U60A]	0.987

Variant	self-cleavage
GGCCGGCAUGGUCCCAGCCUCCUCGCUGGCGCCGGCUGGGCAACACUCCGAGGGGACCGUCCCCUCGGAAAUGGCGAAUGGGACCCA [U46C U69A]	0.918
GGCCGGCAUGGUCCGAGCCUCCUCGCUGGCGCCGGCUGGGCAACAUUCCGAGGGGACCGUCCCCUCGGUAAUGGCGAAUGGGACCUA [C15G C86U]	0.791
GGCCGGCAUGGUCCCAGCCUUCUCGCUGGCGCCGGCUGGGCAACAUUCCGAGGGGACCGUCCGCUCGGUAAUGGCGAAUGGGACCCA [C21U C63G]	0.119
GGCCGGCAUGGUCCCGGCCUCCUCGCUGGCGCCGGCUGGGCAACAUUCCGCGGGGACCGUCCCCUCGGUAAUGGCGAAUGGGACCCA [A16G A51C]	1.05
GGCCGGCAUGGUCCCAGCCUACUCGCUGGCGCCGGUUGGGCAACAUUCCGAGGGGACCGUCCCCUCGGUAAUGGCGAAUGGGACCCA [C21A C36U]	0.0339
GGCCGGCAUGGUCCCAGCCUCCUCGCUGGCGCCGGCUGGGCAACAUUCCGAGGGGACCGUCCCCUCGGUAAUGGCGAAUCGGACCUA [G80C C86U]	0.3
GGCCGGCAUGGUCCCAGCCUCCUCGCUGGCGCCGGCUGGGCAACAUUCCGCGGGGACCGUCCCCUCGAUAAUGGCGAAUGGGACCCA [A51C G68A]	0.916
GGCCGCCAUGGUCCCAGCCUCCUCGCUGGCGCCGGCUGGGCCACAUUCCGAGGGGACCGUCCCCUCGGUAAUGGCGAAUGGGACCCA [G6C A42C]	0.138
GGCCGGCAUGGUCCCAGCCUCCUCGCUGGCGCCGGCUGGUCAACAUUCUGAGGGGACCGUCCCCUCGGUAAUGGCGAAUGGGACCCA [G40U C49U]	0.817
GGCGGGCAUGGUCCCAGCCUCCUCGCUGGCGCCGGCUGGGCAACAUUCCGAGGGGACCGUCCCCUCGGUAAUGGCUAAUGGGACCCA [C4G G76U]	0.469
GGCCGGCAUGGUCCCAGCCUCCACGCUGGCGCCGGCUGGGCAACAUUCCGAAGGGACCGUCCCCUCGGUAAUGGCGAAUGGGACCCA [U23A G52A]	1.02
GGCCGGCAUGGUCGCAGCCUCCUCGCUGGCGCCGGCUGGGCAACAUACCGAGGGGACCGUCCCCUCGGUAAUGGCGAAUGGGACCCA [C14G U47A]	0
GGCCGGCAUGGUCCCAGCCUCCUCGCUGGCGCCGGCUGGGGAACAUUCCGAAGGGACCGUCCCCUCGGUAAUGGCGAAUGGGACCCA [C41G G52A]	0.562
GGCCGGCAUUGUCCCAGCCUCCUCGCUGGCGCCGGCUGGGCAACAUUCCGAGGGGACCGUCCUCUCGGUAAUGGCGAAUGGGACCCA [G10U C63U]	0.686
GGCCGGGAUGGUCCCAGCCUCCUCGCUGGCGCCGGCUGGGCAACAUUCCGAGGGAACCGUCCCCUCGGUAAUGGCGAAUGGGACCCA [C7G G55A]	0.302
GGCCGGCAUGGUCCCAGCCUCCUCGCUGGCGCCGGCUGGGCAAAAUUCCGAGGGGACCGUCCCCUCGGUAAUGGCGAAGGGGACCCA [C44A U79G]	0.128
GGCCGGCAUGCUCCCAGCCUCCUCGCUGGCGCCGGCUGGGCAACAUUCCGAGGGGACCGUCCCCUCGGUAAUGGCGAAUGCGACCCA [G11C G81C]	0.0519
GGCCGGCAUGGUCCCAGCCUCCUCGCUGGCGCCGUCUGGGCAACAUUCCGAGGGGACCGUCCCCUCGGUGAUGGCGAAUGGGACCCA [G35U A70G]	0.554
GGCCGGCAUGGUCCCAGCCUCCUCGCUGGCGCCGGCUGGGCAACAUUCCGAGGGGACCGUCCCCUCGGUAGAGGCGAAUGGGACCCA [A71G U72A]	0.573
GGCCGGCAUGGUCCCAGCCUCCUCGCUGGCGCCGGCUGGGCAACACUCCGAGGGGAACGUCCCCUCGGUAAUGGCGAAUGGGACCCA [U46C C57A]	1.22
